Experimental data published in patent publication US20220378925A1 (ORIONIS BIOSCIENCES, published 2022).

Target: PD-L1 endogenously expressed on HL116 cells (human, UniProt Q9NZQ7 19-290)
Assay: cell-based or functional assay

PD-L1 endogenously expressed on HL116 cells, sequence (Q9NZQ7 19-290): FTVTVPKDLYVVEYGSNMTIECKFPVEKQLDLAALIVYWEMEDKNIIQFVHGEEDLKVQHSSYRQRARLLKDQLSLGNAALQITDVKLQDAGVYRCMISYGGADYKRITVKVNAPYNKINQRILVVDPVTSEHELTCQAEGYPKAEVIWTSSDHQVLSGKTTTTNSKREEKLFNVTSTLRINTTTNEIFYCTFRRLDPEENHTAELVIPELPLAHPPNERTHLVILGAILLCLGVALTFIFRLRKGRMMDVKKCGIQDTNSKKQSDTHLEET

B1: 2LIG99-hIFNα1, linker-cysteine 12 kDa PEGylated (other)
chain: DVQLVESGGGLVQPGGSLRLSCTASGTIFSINRMDWFRQAPGKQRELVALITSGGTPAYADSAKGRFTISRDNSKNTVYLQMNSLRPEDTAVYYCHVSSGVYNYWGQGTLVTVSSGGSGGSGGSGGSGGSGGSGGSGGSGGSGGCGGSGGSGGSGGSGGSGGSGGSGGSGGSGGSCDLPETHSLDNRRTLMLLAQMSRISPSSCLMDRHDFGFPQEEFDGNQFQKAPAISVLHELIQQIFNLFTTKDSSAAWDEDLLDKFSTELYQQLNDLEACVMQEERVGETPLMNADSILAVKKYFRRITLYLTEKKYSPCAWEVVRAEIMRSLSLSTNLQERLRRKEHHHHHH
modifications: 12 kDa mPEG-Maleimide on the cysteine in the middle of the linker (about 75% monoPEGylated material)
- decrease of biological activity after linker-cysteine PEGylation, HL116 reporter-assay: 10 fold

B2: 2LIG99-hIFNα1, amine PEGylated (polyPEGylated, mPEG20K-Succinimidyl Carboxymethyl Ester) (other)
chain: B1 chain
modifications: several 20 kDa PEG groups on the N-terminal amine and/or lysine residues (mainly polyPEGylated, sites not stated)
- drop of biological activity upon amine (poly)PEGylation, HL116 reporter-assay: ~20000 fold

B3: 2LIG99-hIFNα1, N-terminal 20 kDa PEGylated (other)
chain: B1 chain
modifications: 20 kDa mPEG-aldehyde on the N-terminal amine (mainly mono-PEGylated)
- reduction in biological activity after N-terminal 20 kD PEGylation, HL116 reporter-assay: ~20 fold
